# Where “and” joins values, the source holds several entries; their conditions need not be identical. Equal values may be shown once. Entries after “also recorded” stand apart in the source; their conditions may differ.
# Legend:
# [1] = system: preterm infants born before week 32 of gestational age; test: Growth velocity (body weight) in phase II crossover studies BVT.BSSL-020/-021; assay type: in vivo, human; conditions: for Growth velocity, LS Mean / Growth velocity, LS Mean Difference (rhBSSL − Placebo) / Growth velocity, Maximum / Growth velocity, Mean (SD) / Growth velocity, Median / Growth velocity, Minimum: 7 days
# Procedure: Patients were randomized to infant formula/pasteurized breast milk supplemented with rhBSSL at a final concentration of 0.15 g/L, or to infant formula/pasteurized breast milk “supplemented” with sterile water for injection (as placebo) for the first 7 days. After a washout period of 2 days, the patient was “crossed over” to the other treatment regimen during a second 7-day treatment period. Collection of feces samples for CFA assessment were performed during the last 3 days (72 hours) of each treatment period.
# The patient's weight in grams was recorded each day using a scale with an accuracy of at least +/−5 grams and entered on the CRF. To the extent possible, body weight was measured at approximately the same time each day.
# • Growth velocity (g/kg/day): Growth velocity was defined as, for the first period, (the weight at the last assessment in the first period minus the weight at Day 1) divided by [the weight at Day 1 and (the day of the last assessment in the first period minus 1)], and for the second period, (the weight at the last assessment in the second period minus the weight at Day 10) divided by [the weight at Day 10 and (the day of the last assessment in the second period minus 10)]. The Secondary Efficacy Variables were: • CFA measured in food and feces samples collected between the tracer markers during the final 3 days (72 hours) of each treatment period. • CFA was calculated as [Fat (g/period) in food—Fat (g/period) in stool]/[Fat (g/period) in food)]*100. • Fat in food was calculated as ([Food (mL)−Vomit (mL)]*[Fat Content in Food (g/100 mL)]/100. This formula was based on the following assumptions: (a) fat content in vomit is the same as the fat content in food; (b) density of vomit is the same as density of food. • Fat content of food (formula or pasteurized breast milk) was determined using the same method as for the stool analysis and was performed by the same lab. Food (mL) and Vomit (mL) were calculated as the total amount of food or vomit recorded on or after the first tracer ingestion and prior to the second tracer ingestion. Vomit was recorded in grams on the CRF. Therefore, Vomit (mL) was calculated as Vomit (g)/Density. • There was one difference in the calculation of fat (g/period) in stool and fat content in food (g/100 mL) between the two studies. That difference relates to different contents of fatty acids in milk and formula, as described below: […]
# The primary efficacy outcome, growth velocity, was analyzed by an analysis of variance (ANOVA) with treatment, regimen (pasteurized breast milk or infant formula), period, sequence, and patient nested within regimen and sequence as factors. All main effects were tested against the residual mean square from the ANOVA model.
# [2] = system: preterm infants born before week 32 of gestational age; test: Change in knee-to-heel length (knemometer), studies BVT.BSSL-020/-021; assay type: in vivo, human; conditions: FAS and PP, combined data and by study, one week of treatment
# Procedure: The length of the patient's leg was measured from the knee to the heel using a knemometer provided to the sites. Knee-to-heel length was recorded in millimeters on the CRF. To the extent possible, length was measured at approximately the same time each day and by the same person. Three measurements were made and the mean value was entered on the CRF.
# Combined Analysis: • The combined statistical analysis of CFA data used the overall CFA values as calculated for each infant/treatment-period from each of the two individual studies. • Change in length (mm): Change in length was defined as the change in length from knee to heel from Day 1 to Day 7 in the first period and Day 10 to Day 16 in the second period. The Exploratory Efficacy Variables were: • Absorption of DHA and AA: Coefficients of absorption of DHA (C22:6 n-3) and AA (C20:4 n-6) measured in feces samples collected during the final 3 days (72 hours) of each treatment period. • Coefficients of absorption of DHA and AA were calculated using the same approach as used for CFA calculations, but using only the amounts of the individual (C22:6 n-3) and (C20:4 n-6) in samples for DHA and AA, respectively. 7.5.2 Efficacy Analysis Methodology […]
# [3] = system: preterm infants born before week 32 of gestational age; conditions: in vivo
# Source text: (§1) The adverse event (AE) reporting period in each study began upon administration of the first dose (Day 1) of investigational medication and ended at the Follow-up Visit (1 week±3 days after the last dose of study drug intake). All AEs that occurred in a patient during the adverse event reporting period were to be reported, whether or not the event was considered medication/product related. In addition, any known untoward event that occurred subsequent to the AE reporting period that the investigator assessed as possibly, probably, or definitely related to the investigational product were also to be reported as an AE.
# (§2) MedDRA dictionary version 10.0 was used to classify all AEs reported during either study by system organ class (SOC) and preferred term (PT). All summary tables included counts of patients with treatment-emergent adverse events (TEAEs). The assessment of TEAEs was made in each individual study. […] All TEAEs, treatment related TEAEs (definite, probable, and possible), SAEs, and TEAEs leading to withdrawal of study drug were summarized by MedDRA SOC, PT, and treatment. Both the incidence (proportion of patients) and number of each TEAE were summarized. Additionally, TEAEs were summarized by maximum severity (mild, moderate, or severe). An overall summary of TEAEs was presented by treatment sequence and total and presented the number (%) of patients with TEAEs for each treatment sequence allocated to (1) BSSL only; (2) Placebo only; (3) Both BSSL and placebo; and (4) Neither Treatment.
# [4] = system: preterm infants born before week 32 of gestational age; test: Treatment-emergent adverse events, studies BVT.BSSL-020/-021
# Source text: as §1, §2
# [5] = BVT.BSSL-020 (infant formula), FAS, 0.15 g/L
# [6] = BVT.BSSL-020 (infant formula), PP, 0.15 g/L
# [7] = BVT.BSSL-021 (pasteurized breast milk), FAS, 0.15 g/L
# [8] = BVT.BSSL-021 (pasteurized breast milk), PP, 0.15 g/L
# [9] = combined studies 020+021, FAS, 0.15 g/L in feed
# [10] = combined studies 020+021, PP, 0.15 g/L in feed
# [11] = Safety Analysis Set, rhBSSL N = 61
# [12] = TEAE, Safety Analysis Set, rhBSSL N = 61
molecule,measurement,setting,value
"rhBSSL: recombinant human bile-salt-stimulated lipase, SEQ ID. NO. 1, expressed from recombinant CHO cells; used in both clinical trials (protein, listed as Homo sapiens) AKLGAVYTEGGFVEGVNKKLGLLGDSVDIFKGIPFAAPTKALENPQPHPGWQGTLKAKNFKKRCLQATITQDSTYGDEDCLYLNIWVPQGRKQVSRDLPVMIWIYGGAFLMGSGHGANFLNNYLYDGEEIATRGNVIVVTFNYRVGPLGFLSTGDANLPGNYGLRDQHMAIAWVKRNIAAFGGDPNNITLFGESAGGASVSLQTLSPYNKGLIRRAISQSGVALSPWVIQKNPLFWAKKVAEKVGCPVGDAARMAQCLKVTDPRALTLAYKVPLAGLEYPMLHYVGFVPVIDGDFIPADPINLYANAADIDYIAGTNNMDGHIFASIDMPAINKGNKKVTEEDFYKLVSEFTITKGLRGAKTTFDVYTESWAQDPSQENKKKTVVDFETDVLFLVPTEIALAQHRANAKSAKTYAYLFSHPSRMPVYPKWVGADHADDIQYVFGKPFATPTGYRPQDRTVSKAMIAYWTNFAKTGDPNMGDSAVPTHWEPYTTENSGYLEITKKMGSSSMKRSLRTNFLRYWTLTYLALPTVTDQEATPVPPTGDSEATPVPPTGDSETAPVPPTGDSGAPPVPPTGDSGAPPVPPTGDSGAPPVPPTGDSGAPPVPPTGDSGAPPVPPTGDSGAPPVPPTGDSGAPPVPPTGDAGPPPVPPTGDSGAPPVPPTGDSGAPPVTPTGDSETAPVPPTGDSGAPPVPPTGDSEAAPVPPTDDSKEAQMPAVIRF","Growth velocity, LS Mean",[1]; [5],18.05 g/kg/day
same,"Growth velocity, LS Mean Difference (rhBSSL − Placebo)",[1]; [5],3.74 g/kg/day
same,"Growth velocity, Maximum",[1]; [5],25.5 g/kg/day
same,"Growth velocity, Mean (SD)",[1]; [5],18.06 g/kg/day and 18.06 (3.964) g/kg/day
same,"Growth velocity, Median",[1]; [5],18.39 g/kg/day
same,"Growth velocity, Minimum",[1]; [5],9.2 g/kg/day
same,"Growth velocity, LS Mean",[1]; [6],17.75 g/kg/day
same,"Growth velocity, LS Mean Difference (rhBSSL − Placebo)",[1]; [6],2.30 g/kg/day
same,"Growth velocity, Maximum",[1]; [6],24.0 g/kg/day
same,"Growth velocity, Mean (SD)",[1]; [6],17.79 (4.013) g/kg/day
same,"Growth velocity, Median",[1]; [6],17.98 g/kg/day
same,"Growth velocity, Minimum",[1]; [6],9.2 g/kg/day
same,"Growth velocity, LS Mean",[1]; [7],15.58 g/kg/day
same,"Growth velocity, LS Mean Difference (rhBSSL − Placebo)",[1]; [7],1.95 g/kg/day
same,"Growth velocity, Maximum",[1]; [7],26.5 g/kg/day
same,"Growth velocity, Mean (SD)",[1]; [7],15.54 g/kg/day and 15.54 (4.880) g/kg/day
same,"Growth velocity, Median",[1]; [7],15.95 g/kg/day
same,"Growth velocity, Minimum",[1]; [7],7.5 g/kg/day
same,"Growth velocity, LS Mean",[1]; [8],16.47 g/kg/day
same,"Growth velocity, LS Mean Difference (rhBSSL − Placebo)",[1]; [8],1.71 g/kg/day
same,"Growth velocity, Maximum",[1]; [8],26.5 g/kg/day
same,"Growth velocity, Mean (SD)",[1]; [8],16.16 (4.856) g/kg/day
same,"Growth velocity, Median",[1]; [8],16.80 g/kg/day
same,"Growth velocity, Minimum",[1]; [8],8.3 g/kg/day
same,"Growth velocity, LS Mean",[1]; [9],16.86 g/kg/day
same,"Growth velocity, LS Mean Difference (rhBSSL − Placebo)",[1]; [9],2.93 g/kg/day
same,"Growth velocity, Maximum",[1]; [9],26.5 g/kg/day
same,"Growth velocity, Mean (SD)",[1]; [9],16.92 (4.540) g/kg/day
same,"Growth velocity, Median",[1]; [9],16.84 g/kg/day
same,"Growth velocity, Minimum",[1]; [9],7.5 g/kg/day
same,"Growth velocity, LS Mean",[1]; [10],17.15 g/kg/day
same,"Growth velocity, LS Mean Difference (rhBSSL − Placebo)",[1]; [10],2.08 g/kg/day
same,"Growth velocity, Maximum",[1]; [10],26.5 g/kg/day
same,"Growth velocity, Mean (SD)",[1]; [10],17.08 (4.424) g/kg/day
same,"Growth velocity, Median",[1]; [10],16.84 g/kg/day
same,"Growth velocity, Minimum",[1]; [10],8.3 g/kg/day
same,Relative increase of growth velocity compared to the LS mean for placebo,"[1]; combined studies, PP",13.8%
same,Relative increase of growth velocity compared to the LS mean for placebo,"[1]; formula-fed infants (BVT.BSSL-020), PP",14.9%
same,"Change in knee-to-heel length, rhBSSL versus placebo",[2],No noticeable differences; also recorded: No difference
same,"Urinary tract infection, n (%) of Patients",[3],1 (1.6%)
same,"Patients who died, n (%) of Patients",[4]; [11],0
same,"Patients with any TEAE, n (%) of Patients",[4]; [11],29 (47.5%)
same,"Patients with any serious TEAE, n (%) of Patients",[4]; [11],0
same,"Patients with any severe TEAE, n (%) of Patients",[4]; [11],1 (1.6%)
same,"Anemia neonatal, n (%) of Patients",[4]; [12],2 (3.3%)
same,"Anemia, n (%) of Patients",[4]; [12],3 (4.9%)
same,"Bradycardia, n (%) of Patients",[4]; [12],1 (1.6%)
same,"Cardiac murmur, n (%) of Patients",[4]; [12],4 (6.6%)
same,"Dermatitis diaper, n (%) of Patients",[4]; [12],13 (21.3%)
same,"Hypokalemia, n (%) of Patients",[4]; [12],3 (4.9%)
same,"Thrombocythemia, n (%) of Patients",[4]; [12],0
same,Tolerability when added to infant formula or pasteurized breast milk,"[4]; preterm infants, combined analysis",well tolerated

# From US8986682B2, “Method to increase the absorption of unsaturated fatty acids by human infants” (Swedish Orphan Biovitrum AB (publ), priority 2010, dated 2015)
